Measurements reported in patent US20240277861A1, “ANTI-HEPATITIS B VIRUS AGENT TARGETING HOST FACTOR LIPG” (PUROTECH BIO, INC., priority 2021, published 2024).
Residue numbers refer to the chain shown, from its start.

T1: full-length form of LIPG (500 amino acids) (Homo sapiens, UniProt Q9Y5X9)
T1 construct: A pull-down assay was performed on the full-length form of LIPG (500 amino acids); made in house
T1 sequence (Q9Y5X9 21-500): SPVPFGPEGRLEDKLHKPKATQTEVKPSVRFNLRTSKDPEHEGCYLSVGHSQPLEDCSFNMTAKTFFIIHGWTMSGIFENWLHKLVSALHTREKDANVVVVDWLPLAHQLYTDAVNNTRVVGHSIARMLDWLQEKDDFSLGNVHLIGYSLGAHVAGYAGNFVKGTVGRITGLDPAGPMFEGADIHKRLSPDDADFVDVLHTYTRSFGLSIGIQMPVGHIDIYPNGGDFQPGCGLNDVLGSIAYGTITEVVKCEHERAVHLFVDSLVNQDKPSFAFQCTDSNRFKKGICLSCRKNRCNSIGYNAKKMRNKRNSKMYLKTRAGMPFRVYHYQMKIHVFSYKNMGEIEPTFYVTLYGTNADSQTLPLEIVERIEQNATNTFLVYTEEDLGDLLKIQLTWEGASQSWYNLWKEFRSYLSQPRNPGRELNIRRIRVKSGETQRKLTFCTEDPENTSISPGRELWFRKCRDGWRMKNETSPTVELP

B1: 10M-LLNTSN-S39: fusion of ASGR3-10M scFv, cleavage sequence, LIPH4-LNTNBs, S39, nuclear localization signal (SEQ ID NO: 132) (protein)
chain: RVRRLNCRHNTAGDYKDDDDKHHHHHHHPFVIGAGVLGALGTGIGGITTSTQFYYKLSQELNGDMERPAAKRVKLD
modifications: cleavage sequence + LIPH4-NTNBs + Flag-tag + His-tag + S39 + nuclear localization signal
B2: 10M-LN4SN: fusion of ASGR3-10M scFv, cleavage sequence, LIPH4-N4BP1b, S28, nuclear localization signal (SEQ ID NO: 134) (protein)
chain: RVRRSNCRINTFRDYKDDDDKHHHHHHHPFVIGAGVLGALGTGIGGITTSTQFYYKPAAKRVKLD
modifications: cleavage sequence + LIPH4-N4BP1b + Flag-tag + His-tag + S28 + nuclear localization signal
B3: 10M-LLNTSN: fusion of ASGR3-10M scFv, cleavage sequence, LIPH4-LNTNBs, S28, nuclear localization signal (SEQ ID NO: 131) (protein)
chain: B2 chain with S5L, I9H, F12A, R13G
modifications: cleavage sequence + LIPH4-NTNBs + Flag-tag + His-tag + S28 + nuclear localization signal
B4: 10M-LN4N: fusion of ASGR3-10M scFv, cleavage sequence, LIPH4-N4BP1a, S28, nuclear localization signal (SEQ ID NO: 133) (protein)
chain: RVRRSNCRINTFRTVPIEQKDYKDDDDKHHHHHHHPFVIGAGVLGALGTGIGGITTSTQFYYKPAAKRVKLD
modifications: cleavage sequence + LIPH4-N4BP1a + Flag-tag + His-tag + S28 + nuclear localization signal

What follows are molecules tested on HBV (assay: Anti-HBV activities of LIPG-binding peptides in PXB cells). Details: HBV-infected PXB cells.
Assay type: cell-based
Protocol: (§1) An infection source medium was prepared by adding the HBV-infected chimeric mouse serum (PhoenixBio), DMSO, and a PEG 8000 solution to the PXB cell culture medium (PhoenixBio) at final concentrations of 5 genome equivalents/cell, 2%, and 4%, respectively. Various synthesized peptides were diluted to different concentrations in this medium, and the resulting media were added individually to PXB cells (PhoenixBio). After the cells were left to stand in a 5% CO2 incubator at 37° C. for 20 to 28 hours, the medium was removed and the wells were washed once with PBS(−). DMSO and one of the various synthesized peptides were added to the PXB cell culture medium at a final concentration of 2% and different concentrations, respectively, and the resulting media were added individually to the PXB cells to perform medium exchange. This medium exchange was performed at 1, 5, and 9 days post infection and samples were collected at 14 days post infection.
(§2) SMI TEST™ M EX-R&D (Medical & Biological Laboratories) was used to extract DNA from the samples. The extracted DNA was used as a template for quantitative PCR of HBV-DNA. For cccDNA detection, the extracted DNA was treated with T5 exonuclease (New England Biolabs), and the resulting DNA was used as a template for quantitative PCR. The T5 exonuclease treatment was performed at 37° C. for 30 minutes, and the DNase was later inactivated by heating at 80° C. for 15 minutes. The following primer set was used for detection.
PXB cells, fresh human liver cells isolated from PXB mice (human hepatocyte chimeric mice), are human liver cells that maintain human liver functions at high levels and allow persistent infection with hepatitis B virus (HBV). Therefore, PXB cells were used to evaluate the anti-HBV activities of LIPG-binding peptides. LIPG-binding peptides were chemically synthesized because they were added extracellularly (Eurofins Genomics K.K.). Clones that had shown excellent results in the studies of Examples 10 and 1 (KIgk-LIPH4-23, KIgk-LIPH4-74, KIgk-LIPH4-15, KIgk-L1l 14-2. KIgk-LIPH14-14. KIgk-LIPH4-87) were selected for chemical synthesis of the peptides. […] Therefore, LIPH4-NTNA and LIPH4-NTNB, which share a common sequence with netrins and consist of 16 amino acids, were also chemically synthesized. The chemically synthesized peptides were dissolved in DMSO for use in HBV assays in PXB cells.
Next, the anti-HBV activity of full-length Netrin-1 was examined in PXB cells. A full-length human recombinant Netrin-1 protein consisting of 604 amino acid residues (molecular weight: 67.5 kDa, SEQ ID NO: 28) was purchased from R&D Systems. United States. A shRNA with the sequence […]ctcgagc[…] TTTTTTG (single underline: terminal sequences for cloning, lowercase letters: hairpin loop sequence) (SEQ ID NO: 64) was used to knock down the Netrin-1 gene.
LNCRHNTAGRHCHYCK (LIPH4-NTNB) was tested, and the “anti-HBV activity (effect to reduce HBV DNA and cccDNA copy numbers)” value was “high anti-HBV activity”.
In the case of RKSGGVCLNCRHNTAG (LIPH4-NTNA), the “anti-HBV activity (effect to reduce HBV DNA and cccDNA copy numbers)” value is reported as “as strongly as the polypeptides (5) to (10)”.

Same assay, conditions: HBV-infected PXB cells; listed as polypeptide (12)
For LNCRHNTAGRHCHYCK (LIPH4-NTNB), the “anti-HBV activity (effect to reduce HBV DNA and cccDNA copy numbers)” value was “as strongly as the polypeptides (5) to (10)”.

Same assay, conditions: PXB cells, Netrin-1 gene knocked down, vs control
“Netrin-1 shRNA: shRNA of SEQ ID NO: 64 used to knock down the Netrin-1 gene (guide CCGGGACTGCGATTCCTACTGCAAGCTCGAGCTTGCAGTAGGAATCGCAGTCTTTTTTG) [reference compound]” was tested, and the HBV-DNA copy number was “remarkably increased” and the cccDNA copy number was “remarkably increased”.

These molecules were tested against T1, full-length form of LIPG (500 amino acids) (assay: Pull-down assay of LIPH4 peptides against full-length LIPG). Details: culture supernatant of transfected 293T cells, compared with no bait.
Assay type: binding
Protocol: Human embryonic kidney 293T cells were cultured in DMEM (1.0 g/l glucose) with L-Gln and Sodium Pyruvate, liquid (Nacalai) supplemented with 10% FCS ([…]). Plating was performed in a 1:2 ratio on 6 cm dishes 24 hours before transfection. Lipofectamine 2000 in a volume of 20 μl was added to 500 μl of Opti-MEM 1 and allowed to stand for 5 minutes at room temperature, and the resulting mixture was gently added to a 6 cm dish containing a mixture of 500 μl of Opti-MEM 1 and 8 μg of a plasmid DNA. The resulting mixture was allowed to stand for 20 minutes at room temperature, and then added to a 6 cm dish containing 293T cells, and the cells were cultured at 37° C. in 5% CO2 for 4 to 6 day.
Resin (Streptavidin MagneSphere Paramagnetic Particles) (Promega) was washed using the MagneSphere Technology Magnetic Separation Stand (tweleve-position). The resin in a volume of 40 μl was added to each 1.5 ml tube, and after removal of the solution, washed three times with 1 ml of PBS. The resin was transferred to new tubes and mixed with 0.5 nmol (109 μl) of LIPG-BioFLAGHis or with 109 μl of PBS as a no bait control, and the resulting mixtures were agitated at 4° C. for 1 hour by rotation on a mini-disk rotor (BIO CRAFT) to allow binding. After removal of the solution, the resin was washed three times with 1 ml of TBST (containing 0.05% Tween 20). The resin was transferred to new tubes, blocked with 1 ml of ELISA BSA buffer (TBS, 0.05%, Tween 20, 1% BSA. Nacalai Tesque, Inc.) at 4° C. for 1 hour, and then washed three times with 1 ml of ELISA BSA buffer. The resin was transferred to new tubes, and 1000 μl of the culture supernatant containing expressed KIgk-LIPH4 was mixed with […] of the resin treated with LIPG-BioFLAGHis or without the bait, and the resulting mixtures were agitated at 4° C. for 1 hour and 30 minutes by rotation on a mini-disk rotor (BIO CRAFT) to allow binding. After removal of the solution, the resin was washed three times with […] of TBST (Tween 20, 0.1%), and the recovered resin was used for Western blotting.
Each resin was mixed with water and LDS sample buffer (4×), 0.2 mM DTT, heated at 70° C. for 10 minutes, and then subjected to SDS-PAGE. SDS-PAGE was performed using 4-12% Bis-Tris gel and NuPAGE MES-SDS electrophoresis buffer (Invitrogen) at 200 V and 400 mA for 35 minutes. After electrophoresis, transfer was performed using Mini Format, 0.2-μm PVDF, Single-application (BIO-RAD) Trans-Blot Turbo. The membrane was blocked with a Blocking One Buffer: TBST (1:9) solution and reacted with an anti-Flag-HRP (Sigma: A8592) diluted 2:3000 in a Blocking One Buffer: TBST (1:9) solution. Detection was performed using ECL (Enhanced ChemiLuminescence) on a ChemiDoc (BIO-RAD).
A pull-down assay was performed on the full-length form of LIPG (500 amino acids) with LIPH4 peptides (FIG. 16).
In the case of “CPCVNGATRHRPTSLC (LIPH4-16) [KIgk-LIPH4-16]”, the “binding to LIPG in pull-down assay” value is reported as “positive”.
For GADLRRGCC (LIPH4-87) [KIgk-LIPH4-87], the “binding to LIPG in pull-down assay” value was “positive”.
IRNVNHSDH (LIPH4-74) [KIgk-LIPH4-74] was tested, and the “binding to LIPG in pull-down assay” value was “positive”.
“LCECRDVLSCYYITDT (LIPH4-90) [KIgk-LIPH4-90]” was tested, and the “binding to LIPG in pull-down assay” value was “positive”.
In the case of LNVGYVFYP (LIPH4-15) [KIgk-LIPH4-15], the “binding to LIPG in pull-down assay” value is reported as “positive”.
In the case of LVPWLRYAY (LIPH4-12) [KIgk-LIPH4-12], the “binding to LIPG in pull-down assay” value is reported as “positive”.
With RCRQSWNTM (LIPH4-14) [KIgk-LIPH4-14] the “binding to LIPG in pull-down assay” value was “positive”.
SLYTGFRAH (LIPH4-2) [KIgk-LIPH4-2] was tested, and the “binding to LIPG in pull-down assay” value was “positive”.

The molecules below were run on HBV (assay: Anti-HBV activities of LIPG-binding peptides delivered into PXB cells-2 (scFv fusions, 4% PEG)). Details: presence of 4% PEG.
Assay type: cell-based
Protocol: as §1, §2
The anti-HBV activities of LIPG-binding peptides delivered into cells were evaluated using PXB cells and anti-ASGR single-chain antibody-LIPG-binding peptide fusions. The anti-HBV activity was evaluated in the presence of 4% PEG. The evaluation of the anti-HBV effect in the presence of PEG is more stringent than under the conditions in Example 18 without the presence of PEG because the HBV-DNA and cccDNA copy numbers are increased in the presence of PEG. Of the fusions prepared in Example 16, 10M-LN4SN, 10M-LN4N, 10M-LLNTSN, and 10M-LLNTSN-S39 were used. According to the timeline shown in FIG. 42A, the anti-HBV activities of the fusions were evaluated using the methods described in “(10-5) Infection experiment using PXB cells” and “(10-6) Quantification of HBV-DNA and cccDNA”.
In the case of B1, the HBV-DNA copy number is reported as “remarkably reduced” and the cccDNA copy number is reported as “remarkably reduced”.
For B2, the HBV-DNA copy number was “remarkably reduced” and the cccDNA copy number was “remarkably reduced”.
B3 was tested, and the HBV-DNA copy number was “remarkably reduced” and the cccDNA copy number was “remarkably reduced”.
B4 was tested, and the HBV-DNA copy number was “remarkably reduced” and the cccDNA copy number was “remarkably reduced”.
